Earlier results in paper PMC9691366, “Modulating the pharmacokinetic profile of Actinium-225-labeled macropa-derived radioconjugates by dual targeting of PSMA and albumin” (Theranostics, 2022).

Test system: tumor
Settings: in vivo, 24 h; cited from earlier work

Substance: [^177Lu]Lu-PSMA-617
- tumor uptake: 11.20 ± 4.17 %ID/g
